The target of experiment [1] is huCD33 R69G variant (human) (UniProt P20138). The experiment can be described thus: FACS, control antibody, on 293AD cells labelled 'SNPG69R', taken as the SNP variant of paragraph 650. (Flow cytometry measures light scatter and fluorescence of single cells or particles in a stream.)
For experiment [2], the target named is Full-length huCD33 membrane construct with single mutation S115A (human) (UniProt P20138). The experiment can be described thus: FACS with APC-labelled isotype control on 293AD cells transiently expressing huCD33 S115A.
Chain of Full-length huCD33 membrane construct with single mutation S115A (human) (P20138 18-364 S115A): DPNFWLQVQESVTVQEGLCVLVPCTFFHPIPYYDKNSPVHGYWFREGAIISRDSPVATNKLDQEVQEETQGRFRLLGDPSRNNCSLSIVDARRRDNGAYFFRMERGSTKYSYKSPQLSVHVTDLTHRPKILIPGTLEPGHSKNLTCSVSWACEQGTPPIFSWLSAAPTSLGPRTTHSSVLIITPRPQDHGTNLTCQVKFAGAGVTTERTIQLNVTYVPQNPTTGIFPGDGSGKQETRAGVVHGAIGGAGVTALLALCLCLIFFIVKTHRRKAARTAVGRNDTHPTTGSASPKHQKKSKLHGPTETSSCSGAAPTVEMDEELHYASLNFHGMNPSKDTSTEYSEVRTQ
Experiment [3] has the same target. Nature of the experiment: FACS with Dylight 650 labelled isotype control on 293AD cells transiently expressing huCD33 S115A.
Experiment [4] shares this target. Nature of the experiment: FACS with WM53-APC (BD-Bioscience) on 293AD cells transiently expressing huCD33 S115A.
In experiment [5] the target is Full-length huCD33 membrane construct with double mutation S102A/S115A (human) (UniProt P20138). The experiment can be described thus: FACS with WM53-APC (BD-Bioscience) on 293AD cells transiently expressing huCD33 S102A/S115A.
Chain of Full-length huCD33 membrane construct with double mutation S102A/S115A (human) (P20138 18-364 S102A/S115A): as the sequence (P20138 18-364 S115A) above, with S85A counted along it
In experiment [6] the target is Human CD33 (human) (UniProt P20138). Nature of the experiment: FACS with WM53-APC (BD-Bioscience) on HEK293AD cells stably expressing rhCD33 (positive control stain).
Chain of Human CD33 (human) (P20138 18-364): as the sequence (P20138 18-364 S115A) above, with A98S counted along it
Experiment [7] has as its target Construct-88: irrelevant Ig-like V linked to a CD33 Ig-like C (R144-Q228 including TM/CD L229) (human). Nature of the experiment: FACS on 293 cells transiently transfected with construct 88, control antibody.
Experiment [8] addresses Construct-88B: CD33 Ig-like V (M17-V136 including spacer H137-H143) linked to an irrelevant Ig-like C (including TM/CD) (human). The experiment can be described thus: FACS on 293 cells transiently transfected with construct 88B, control antibody.
Experiment [9] has as its target Human CD33 (human) (UniProt P20138). Nature of the experiment: FACS on 293-hCD33 cells, isotype control of the competition experiment.

Chain of huCD33 R69G variant (human) (P20138 18-364 R69G): as the sequence (P20138 18-364 S115A) above, with R52G, A98S counted along it
Chain of Construct-88B: CD33 Ig-like V (M17-V136 including spacer H137-H143) linked to an irrelevant Ig-like C (including TM/CD) (human) (chain, as listed by the source limits assumed, form in doubt): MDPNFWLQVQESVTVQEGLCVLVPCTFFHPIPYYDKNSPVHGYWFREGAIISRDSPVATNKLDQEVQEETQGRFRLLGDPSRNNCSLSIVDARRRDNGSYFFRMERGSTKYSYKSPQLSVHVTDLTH
Chain of Construct-88: irrelevant Ig-like V linked to a CD33 Ig-like C (R144-Q228 including TM/CD L229) (human) (P20138 144-364): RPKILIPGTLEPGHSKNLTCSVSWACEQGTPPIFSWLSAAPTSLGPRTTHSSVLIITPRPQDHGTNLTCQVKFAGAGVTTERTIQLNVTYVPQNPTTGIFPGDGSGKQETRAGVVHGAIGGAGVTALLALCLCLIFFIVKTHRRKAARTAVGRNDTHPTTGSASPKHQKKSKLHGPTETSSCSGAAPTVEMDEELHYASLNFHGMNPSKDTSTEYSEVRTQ

In turn, gD (antibody) showed a Geom. Mean:FL1-H in experiment [1] of 5.83.

Iso-APC (antibody) registered a Geom. Mean:FL4-H in [2] of 2.52.

In [3], Iso-650 (antibody) gave a Geom. Mean:FL4-H of 8.67.

Turning to WM53 (antibody), the Geom. Mean:FL4-H in experiment [4] worked out at 609; in experiment [5] it was 500; in [6], 1280.

Substance mIgG1 (antibody) yielded a Geom. Mean:FL1-H in [1] of 5.78.

Turning to hgD-650 (antibody), the values for the Geom. Mean:FL4-H in experiment [7] and in experiment [8] were 13.9 and 16.7, respectively.

On to Isotype (antibody), for which, in experiment [9], the Geom. Mean:FL1 is 3.58.

The values are drawn from US20170002074A1.
